Experimental data published in US20260055369A1 (H LEE MOFFITT CANCER CENTER AND RESEARCH INSTITUTE, published 2026).

Experiments:
[1] = target: T1, hNotch3 (EGF5-12, residues 197-505), biotinylated (human, UniProt Q9UM47 197-505, Biotinylated in vitro by BirA at the C-terminal BAP-tag (tag not in the letters).); experiment: SPR, KD of Delta^MAX against KD of WT DLL4
T1 construct: Immobilised on a streptavidin chip for SPR
T1 sequence: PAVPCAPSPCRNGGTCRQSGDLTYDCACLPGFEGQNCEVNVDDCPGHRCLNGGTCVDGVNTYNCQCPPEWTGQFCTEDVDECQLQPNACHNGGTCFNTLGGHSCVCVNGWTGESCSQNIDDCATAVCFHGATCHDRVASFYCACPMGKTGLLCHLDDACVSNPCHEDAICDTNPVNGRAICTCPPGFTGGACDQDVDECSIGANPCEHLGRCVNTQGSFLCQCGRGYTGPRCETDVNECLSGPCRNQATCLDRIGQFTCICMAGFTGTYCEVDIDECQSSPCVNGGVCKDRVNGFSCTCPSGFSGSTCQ
Description: (§1) Surface plasmon resonance (SPR) was used to determine the binding affinity between Delta^MAX and the ligand-binding regions of Notch1-4. As a basis for comparison, a WT DLL4 construct, a DLL4.v2 construct, and a “DLL4.v1” construct containing the five E12 mutations (G28S, F107L, N118I, H194Y, and L206P) were also generated (FIG. 2A, 10). […] The rapid dissociation of WT DLL4 precluded kinetic fitting of the binding data.
(§2) Equilibrium dissociation constants were determined by surface plasmon resonance using a Biacore T200 instrument (GE Healthcare). Approximately 100 resonance units (RU) of biotinylated Notch extracellular fragments (Notch1 (EGF6-13), Notch2 (EGF6-13), Notch3 (EGF5-12), Notch4 (7-12), and mouse Notch1 (EGF6-13)) were immobilized on individual flow cells at 5 μl/min using a streptavidin-coated sensor chip (Series S Sensor chip SA, GE Healthcare). Three-fold serial dilutions of recombinant DLL4 proteins (N-EGF5) starting at 50 μM (WT DLL4), 18 μM (DLL4.v2), and 6 μM (DLL4.v1 and Delta^MAX) were flowed over the chip at 25° C. in SPR buffer (20 mM HEPES pH 7.4, 150 mM NaCl, 1 mM calcium chloride, 0.1% BSA supplemented with 0.005% surfactant P20). Association (“on-rate”) and dissociation (“off-rate”) phases were performed at 10 μl/min for 120 seconds and 300 seconds, respectively. […] Data collection rate was performed at 10 Hz, and curves were reference-subtracted from a flow cell containing 100 RU of a negative control non-related protein (biotinylated mouse RNF43 PA domain).

[2] = target: T2, hNotch4 (EGF7-12, residues 276-511), biotinylated (human, UniProt Q99466 276-511, Biotinylated in vitro by BirA at the C-terminal BAP-tag (tag not in the letters).); experiment: SPR, KD of Delta^MAX against KD of WT DLL4
T2 construct: Immobilised on a streptavidin chip for SPR; also called Notch4 (7-12)
T2 sequence: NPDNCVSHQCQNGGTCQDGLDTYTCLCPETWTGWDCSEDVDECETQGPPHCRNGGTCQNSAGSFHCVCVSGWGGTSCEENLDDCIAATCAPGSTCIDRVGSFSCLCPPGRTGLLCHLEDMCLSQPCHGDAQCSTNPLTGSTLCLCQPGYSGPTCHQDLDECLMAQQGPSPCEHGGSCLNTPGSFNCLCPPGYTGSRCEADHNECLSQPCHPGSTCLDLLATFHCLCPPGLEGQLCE
Description: as §1, §2

[3] = target: T3, mouse Notch1 (EGF6-13, residues 221-526), biotinylated (mouse, UniProt Q01705 221-526, Biotinylated in vitro by BirA at the C-terminal BAP-tag (tag not in the letters).); experiment: SPR (Biacore T200), biotinylated mNotch1 EGF6-13 on streptavidin chip, DLL4 protein (N-EGF5) in flow, 1:1 model
T3 construct: Immobilised on a streptavidin chip for SPR; also called mNotch1 EGF6-13; mNotch1 (6-13)
T3 sequence: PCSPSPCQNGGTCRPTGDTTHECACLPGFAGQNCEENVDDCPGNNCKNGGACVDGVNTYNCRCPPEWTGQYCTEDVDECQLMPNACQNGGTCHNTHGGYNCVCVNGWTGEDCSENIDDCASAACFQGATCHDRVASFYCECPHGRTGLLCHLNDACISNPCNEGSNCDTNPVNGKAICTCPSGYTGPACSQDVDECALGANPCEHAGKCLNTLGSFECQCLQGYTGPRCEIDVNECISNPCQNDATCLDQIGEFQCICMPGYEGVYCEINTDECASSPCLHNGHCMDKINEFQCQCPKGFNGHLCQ
Description: The binding affinity was measured between each DLL4 variant and the EGF6-13 region of murine Notch1 (mNotch1 EGF6-13) to test for cross-species reactivity (FIGS. 2B, 10, 11A). […] Lastly, the binding of Delta^MAX to full-length, cell surface-expressed Notch1 was assessed.
Equilibrium dissociation constants were determined by surface plasmon resonance using a Biacore T200 instrument (GE Healthcare). Approximately 100 resonance units (RU) of biotinylated Notch extracellular fragments (Notch1 (EGF6-13), Notch2 (EGF6-13), Notch3 (EGF5-12), Notch4 (7-12), and mouse Notch1 (EGF6-13)) were immobilized on individual flow cells at 5 μl/min using a streptavidin-coated sensor chip (Series S Sensor chip SA, GE Healthcare). Three-fold serial dilutions of recombinant DLL4 proteins (N-EGF5) starting at 50 μM (WT DLL4), 18 μM (DLL4.v2), and 6 μM (DLL4.v1 and Delta^MAX) were flowed over the chip at 25° C. in SPR buffer (20 mM HEPES pH 7.4, 150 mM NaCl, 1 mM calcium chloride, 0.1% BSA supplemented with 0.005% surfactant P20). Association (“on-rate”) and dissociation (“off-rate”) phases were performed at 10 μl/min for 120 seconds and 300 seconds, respectively. […] Data collection rate was performed at 10 Hz, and curves were reference-subtracted from a flow cell containing 100 RU of a negative control non-related protein (biotinylated mouse RNF43 PA domain). […]

B1: Delta^MAX (N-EGF5), non-biotinylated (ligand)
chain: SSVFQLQLQEFINERGVLASGRPCEPGCRTFFRVCLKHFQAVVSPGPCTFGTVSTPVLGTNSFAVRDDSSGGGRNPLQLPLNFTWPGTFSLIIEAWHAPGDDLRPEALPPDALISKFAIQGSLAVGQNWLLDEQTSTLTRLRYSYRVICSDNYYGDNCSRLCKKRNDYFGHYVCQPDGNPSCLPGWTGEYCQQPICLSGCHEQNGYCSKPAECLCRPGWQGRLCNECIPHPGCRHGTCSTPWQCLCDEGWGGLYCDQDLNYCTHHSPCKNGATCRNSGPRSYTCTCRPGYTGVDCELELSECDSNPCRNGGSCKDQEDGYHCLCPPGYYGLHCEHSTLSCADSPCFNGGSCRERNQGANYACECPPNFTGSNCEHHHHHHHH
notes: also called DLL4^MAX; soluble Delta^MAX
In the case of B1, the “fold enhancement of affinity compared to WT DLL4” value [1] is reported as 591 fold, the “fold enhancement of affinity compared to WT DLL4” value [2] is reported as 532 fold and the Kd [3] is reported as 25 nM.
